Source: the RNAGym collection of RNA variant scans (doi:10.7554/elife.80360)

B1: HDV Ribozyme (parent)
chain: GGCCGGCAUGGUCCCAGCCUCCUCGCUGGCGCCGGCUGGGCAACAUUCCGAGGGGACCGUCCCCUCGGUAAUGGCGAAUGGGACCCA

Variants of: B1
Assay: self-cleavage, relative activity (ratio to wild type); higher = more cleavage; co-transcriptional

Variant	self-cleavage
G5U A70C	0.415
G5U A70U	0.222
G5C A70C	0.158
G5C A70U	0
G5C A70G	0.158
G5C C58G	0.378
G5A U27C	0.0594
G5A U27G	0.217
G5A U27A	0.504
G5A U23C	0.0573
G5A U23A	0.342
G5A C64G	0.237
G5A C64A	0.198
G5A C64U	0.359
G5U U46G	0
G5U U46C	0
G6A A78U	0.0297
G5C C15U	0.356
G5C C15A	0.262
G5U C21A	0
G5U C26G	0.615
G5U C26U	0.864
G5U G55A	0.467
G5C U79C	0.141

Variant	self-cleavage
G5C U79A	0.185
G5A U37G	0.0504
G5A G82A	0.0554
G5A G82U	0.0354
G5C G82U	0.0594
G5C C24G	0
G5C C24U	0.252
G5U C49G	0.0831
G6A A16G	0.573
G5C U23A	0
G5C U23C	0.208
G5C U23G	0.0615
G5A C66U	0.305
G5A C66G	0.244
G5U C64A	0.499
G5C A51C	0.293
G5C A51U	0.298
G5C A78C	0.0615
G5C A78G	0
G5U A42U	0.208
G5U A42G	0.249
G5C U12C	0
G5U G80C	0.0811
G5C C36A	0.0489

Variant	self-cleavage
G5C C36G	0.0978
G5C C41G	0
G5C C41U	0.277
G6A A77U	0.18
G6A A77G	0.277
G5U G74U	0
G5U U60G	0.151
G5C A87G	0.124
G5A G6C	0.0536
G5A G6U	0.0923
G6A A51C	0.522
G6A A51G	0.517
G5U C30U	0.237
G5U C30G	0
G5A G35A	0.0692
G5A G35C	0.119
G5A G54U	0.113
G5A G54C	0.225
G5C G34A	0.0692
G5C G34U	0.0426
G5C G34C	0
G5U C62A	0.369
G5U C62U	0.467
G5U G38C	0.0875

Variant	self-cleavage
G5A G29A	0.155
G5A G29C	0.0755
G5A G29U	0.0519
G5C C61A	0.432
G5U C66A	0.609
G5U C66U	0.677
G5U U65G	0.475
G5C C26A	0.508
G5C A45U	0.131
G5C A45G	0.0875
G5U U9A	0.578
G5U G39U	0.136
G5U C33U	0.615
G5U C84U	0.219
G5A G73C	0.268
G5A G73A	0
G5A G73U	0.108
G5C C75G	0.123
G5C C75U	0
G5C G50C	0.151
G5U C48G	0.554
G5U C14A	0.0791
G5U C14G	0.185
G5U G31A	0.135

Variant	self-cleavage
G5U G31U	0.277
G5U G31C	0.0723
G5C C57G	0.35
G5C C57A	0.111
G5A C86A	0.132
G5A C86U	0.396
G5C C32A	0.0615
G5U G25A	0.0346
G5C C14G	0.111
G5C C86A	0.166
G5C G53U	0.291
G5U C58A	0.277
G5A C61G	0.166
G5A C61U	0.0326
G5A C61A	0.0573
G5C U20G	0
G5C U20A	0
G5C G38C	0.108
G5C G38A	0.199
G5U G34C	0
G5U C85U	0.399
G5U C85A	0.594
G5U U37G	0.0755
G5U U37C	0.519

Variant	self-cleavage
G5A G52U	0.237
G5C C62G	0.145
G5A U9G	0.111
G5A U46C	0.185
G5A U46A	0
G5C G35C	0.147
G5A G74A	0.0326
G5A G74U	0.0326
G5C A83C	0
G5C A83G	0.0519
G5C G39C	0.0462
G5C G39U	0.0346
G5C G39A	0
G5A U72A	0.101
G5A U72C	0.142
G5A U72G	0.147
G5U A51U	0.688
G5U A51G	0.875
G5U G76U	0.529
G5U C32U	0.104
G5A C57G	0.138
G5A C57U	0.106
G5A C57A	0.0449
G5A G34U	0.0282

Variant	self-cleavage
G5C G59C	0.0791
G5U A8G	0.356
G5U A8U	0.208
G5A C44G	0.0369
G5U C18U	0.0504
G5U C18G	0
G5C G6A	0
G5C G6C	0.151
G6A A43U	0.116
G5A C41A	0.0615
G5A C41G	0
G6A A8C	0.323
G5C C33U	0.386
G5C G17C	0.151
G5U A87U	0.293
G5C G10A	0.208
G5C U47G	0.0536
G5C U47C	0.0594
G5C C84G	0.332
G5U U20G	0.111
G5U C19U	0.0923
G5U C19G	0
G5U C19A	0.256
G5U G54C	0.867

Variant	self-cleavage
G5C U37A	0.104
G5A U69A	0.0519
G5A U69C	0.208
G5A U20C	0
G5A C75A	0.113
G5A C75U	0.0346
G5A C75G	0
G5U G10A	0.135
G5U C22G	0.0615
G5C U72G	0.0831
G5C U72A	0.095
G6A A42U	0.283
G6A A42C	0.0831
G5A C84A	0.172
G5A C84U	0.117
G5U U23A	0.578
G5U U23G	0
G5C C7U	0.0462
G5C C7A	0.119
G5C C7G	0
G5A C58G	0.119
G5A C58A	0.253
G5A C58U	0.252
G5U U27C	0.0978

Variant	self-cleavage
G5C C44U	0.0504
G5A G40U	0.119
G5C C64U	0.332
G5U A16G	0.175
G5C G25C	0
G5C G25A	0.0639
G5U A56G	0.391
G5C C22G	0
G5C C22U	0.151
G5C A43G	0
G5C A43C	0
G5C U69G	0.111
G5C U69A	0.111
G5U C13A	0.217
G5U C13G	0.0978
G5U C13U	0.115
G5A G39C	0.119
G5C C21U	0.0554
G5C C21G	0.125
G5U G81A	0.147
G5U G81C	0
G5C C19G	0
G5C C19A	0
G5C C19U	0.0536

Variant	self-cleavage
G5A G17U	0.123
G5C G40A	0.208
G5C G40C	0.256
G5U G59C	0.415
G5U U47G	0.222
G6A A71U	0.554
G6A A71C	0.269
G6A A71G	0.762
G5A G50C	0.225
G5U G68U	0.268
G5U G68A	0.697
G5C A71G	0.0923
G5C A71U	0.18
G5C A71C	0.0639
G5U G17A	0.189
G5U G17C	0
G5C G28U	0
G5C G28A	0.104
G5C G28C	0.208
G5A C85G	0.147
G5U U69A	0.262
G5U U69C	0.277
G5U C86A	0.755
G5U C86U	0.554

Variant	self-cleavage
G5U A78G	0.332
G5U C36G	0.128
G5U C36U	0.104
G5U G67A	0.32
G5U G67C	0.582
G5U G67U	0.364
G5A U79A	0.192
G5A G28U	0
G5C U27A	0.227
G5C U27C	0
G5U G40C	0.115
G5U G40A	0.364
G5U G40U	0.155
G5U U79C	0.123
G5U U79A	0.104
G5C C30G	0.0875
G5C C30A	0
G5A G31C	0.095
G5C G52U	0.23
G5A U12A	0
G5A U12G	0.145
G5A U12C	0.0615
G5C C66U	0.106
G5C C66A	0.172

Variant	self-cleavage
G5A G67C	0.162
G5C G68C	0
G5C G68A	0.208
G5C C48A	0.0875
G5A G76U	0.148
G5A G76C	0.0959
G5C G76U	0.378
G5C G76C	0.199
G5C G29C	0.0615
G5A G80C	0.0563
G5A G38C	0.208
G5C G80A	0.256
G5U C15G	0
G5U C75G	0.246
G5U C75A	0.101
G5C C13A	0.0755
G5C C13U	0.133
G5U A83C	0
G5U A83U	0
G5A U65G	0
G5A U65A	0.259
G5U G29C	0
G5A U47C	0.0615
G5C A77G	0.0475

Variant	self-cleavage
G5C A77C	0
G5C C85A	0.199
G5C C85G	0.0755
G5A C62U	0.16
G5A C62A	0
G5C A42C	0.115
G5C A42U	0
G6A A70C	0.527
G6A A70U	0.399
G5C G73A	0.0554
G5C G73C	0.0639
G5U C41A	0.172
G5U G11C	0
G5U C61U	0.399
G5C G11U	0.115
G5C C18A	0.0639
G5C C18G	0.262
G5C G67U	0.248
G5C G67C	0.252
G5C G67A	0.353
G5A G53A	0.248
G5A G53C	0.302
G5C U65C	0.222
G5C U65G	0.0978

Variant	self-cleavage
G5A G55C	0.104
G5U C24A	0.158
G5A C48U	0.0405
G5A G68U	0.146
G5A G81C	0.0791
G5A U60C	0.353
G6A A83U	0.324
G6A A56C	0.571
G6A A56G	0.848
G6A A56U	0.601
G5U C63G	0
G5U C63A	0.332
G5U C63U	0.38
G5C C49A	0.178
G5C C49U	0.0755
G5C G55U	0.17
G5C G55A	0.175
G5U G82C	0
G5U G35A	0.156
G5U G35U	0.108
G5U C44G	0.217
G5U C44A	0.119
